Data reported in patent publication US20250262210A1 (TRUSTEES OF COLUMBIA UNIVERSITY IN THE CITY OF NEW YORK, published 2025).

Legend:
Test in all cases: IP/MS, LZTR1 R810W-FLAG, U87
PPFIBP1 = target: T1, PPFIBP1 (human, UniProt Q86W92 1-1011, limits assumed)
T1 sequence (looked up): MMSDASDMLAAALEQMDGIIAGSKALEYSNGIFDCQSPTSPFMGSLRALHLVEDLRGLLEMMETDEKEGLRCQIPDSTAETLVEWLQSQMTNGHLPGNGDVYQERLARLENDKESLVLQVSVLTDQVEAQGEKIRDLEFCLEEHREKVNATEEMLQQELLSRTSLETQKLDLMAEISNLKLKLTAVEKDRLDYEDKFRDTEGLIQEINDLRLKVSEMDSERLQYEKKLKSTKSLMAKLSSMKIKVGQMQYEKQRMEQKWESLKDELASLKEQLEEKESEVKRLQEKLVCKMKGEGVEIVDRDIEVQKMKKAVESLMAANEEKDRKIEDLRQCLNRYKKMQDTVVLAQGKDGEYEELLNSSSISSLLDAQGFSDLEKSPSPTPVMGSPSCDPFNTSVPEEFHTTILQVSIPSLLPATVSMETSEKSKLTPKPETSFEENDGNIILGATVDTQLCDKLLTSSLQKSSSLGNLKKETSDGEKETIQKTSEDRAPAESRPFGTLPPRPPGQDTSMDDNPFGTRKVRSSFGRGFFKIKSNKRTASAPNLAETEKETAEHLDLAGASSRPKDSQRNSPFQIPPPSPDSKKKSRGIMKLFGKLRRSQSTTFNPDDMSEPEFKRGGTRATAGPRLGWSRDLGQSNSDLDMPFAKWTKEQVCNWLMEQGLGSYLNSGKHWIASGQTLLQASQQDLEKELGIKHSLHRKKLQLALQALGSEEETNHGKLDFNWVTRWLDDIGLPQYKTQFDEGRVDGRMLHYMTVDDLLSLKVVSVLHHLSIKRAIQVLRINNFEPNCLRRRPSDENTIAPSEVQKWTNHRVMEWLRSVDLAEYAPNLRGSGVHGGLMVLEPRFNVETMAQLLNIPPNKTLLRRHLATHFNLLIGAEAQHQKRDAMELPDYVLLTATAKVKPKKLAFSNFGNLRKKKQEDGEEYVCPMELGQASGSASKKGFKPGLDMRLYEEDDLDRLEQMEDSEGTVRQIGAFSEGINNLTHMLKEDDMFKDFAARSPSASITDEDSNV
Method in brief: (§1)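 Extracted peptides in 3% acetonitrile/0.1% formic acid ran on a 50 cm C18 column into an Orbitrap Fusion, with MaxQuant identification and spectral counting.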

MTR = MTR (human, UniProt Q99707 1-1265, limits assumed)
MTR, sequence (Q99707 whole entry): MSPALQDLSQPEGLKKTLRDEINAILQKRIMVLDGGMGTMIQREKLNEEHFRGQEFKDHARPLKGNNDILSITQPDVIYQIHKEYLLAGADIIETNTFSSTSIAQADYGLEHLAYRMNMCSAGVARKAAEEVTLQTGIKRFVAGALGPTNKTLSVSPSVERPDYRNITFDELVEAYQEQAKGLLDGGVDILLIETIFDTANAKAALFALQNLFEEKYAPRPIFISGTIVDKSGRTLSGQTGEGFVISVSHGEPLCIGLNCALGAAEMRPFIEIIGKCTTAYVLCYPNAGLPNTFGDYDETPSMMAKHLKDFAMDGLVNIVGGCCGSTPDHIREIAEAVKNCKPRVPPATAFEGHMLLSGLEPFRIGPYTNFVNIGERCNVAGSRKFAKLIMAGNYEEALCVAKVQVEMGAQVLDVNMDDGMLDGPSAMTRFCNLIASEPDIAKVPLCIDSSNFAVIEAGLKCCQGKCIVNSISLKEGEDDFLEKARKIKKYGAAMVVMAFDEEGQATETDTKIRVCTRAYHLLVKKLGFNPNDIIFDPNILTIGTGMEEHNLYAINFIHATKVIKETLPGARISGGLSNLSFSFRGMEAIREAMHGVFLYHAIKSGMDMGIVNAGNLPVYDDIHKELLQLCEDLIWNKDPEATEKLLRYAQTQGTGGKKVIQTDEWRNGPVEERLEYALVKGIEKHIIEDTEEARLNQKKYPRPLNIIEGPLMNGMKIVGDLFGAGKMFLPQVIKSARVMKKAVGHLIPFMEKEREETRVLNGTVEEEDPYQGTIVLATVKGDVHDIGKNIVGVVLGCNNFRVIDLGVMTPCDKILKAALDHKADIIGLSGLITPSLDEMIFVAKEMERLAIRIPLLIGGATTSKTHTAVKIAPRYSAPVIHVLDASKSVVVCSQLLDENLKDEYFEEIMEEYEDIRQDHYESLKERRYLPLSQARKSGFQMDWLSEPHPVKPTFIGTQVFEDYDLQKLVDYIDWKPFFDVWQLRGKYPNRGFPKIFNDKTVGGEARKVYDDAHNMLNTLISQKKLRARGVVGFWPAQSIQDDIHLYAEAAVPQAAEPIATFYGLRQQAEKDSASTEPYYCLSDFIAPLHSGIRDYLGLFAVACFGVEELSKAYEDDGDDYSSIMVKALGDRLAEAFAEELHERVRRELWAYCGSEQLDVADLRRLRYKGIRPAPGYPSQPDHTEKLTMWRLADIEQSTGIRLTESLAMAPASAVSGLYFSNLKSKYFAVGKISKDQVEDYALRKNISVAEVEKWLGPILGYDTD
Method in brief: as §1

MTOR = MTOR (human, UniProt P42345 1-2549)
Method in brief: as §1

ARFGEF1 = ARFGEF1 (human, UniProt Q9Y6D6 1-1849)
ARFGEF1, sequence (Q9Y6D6 whole entry): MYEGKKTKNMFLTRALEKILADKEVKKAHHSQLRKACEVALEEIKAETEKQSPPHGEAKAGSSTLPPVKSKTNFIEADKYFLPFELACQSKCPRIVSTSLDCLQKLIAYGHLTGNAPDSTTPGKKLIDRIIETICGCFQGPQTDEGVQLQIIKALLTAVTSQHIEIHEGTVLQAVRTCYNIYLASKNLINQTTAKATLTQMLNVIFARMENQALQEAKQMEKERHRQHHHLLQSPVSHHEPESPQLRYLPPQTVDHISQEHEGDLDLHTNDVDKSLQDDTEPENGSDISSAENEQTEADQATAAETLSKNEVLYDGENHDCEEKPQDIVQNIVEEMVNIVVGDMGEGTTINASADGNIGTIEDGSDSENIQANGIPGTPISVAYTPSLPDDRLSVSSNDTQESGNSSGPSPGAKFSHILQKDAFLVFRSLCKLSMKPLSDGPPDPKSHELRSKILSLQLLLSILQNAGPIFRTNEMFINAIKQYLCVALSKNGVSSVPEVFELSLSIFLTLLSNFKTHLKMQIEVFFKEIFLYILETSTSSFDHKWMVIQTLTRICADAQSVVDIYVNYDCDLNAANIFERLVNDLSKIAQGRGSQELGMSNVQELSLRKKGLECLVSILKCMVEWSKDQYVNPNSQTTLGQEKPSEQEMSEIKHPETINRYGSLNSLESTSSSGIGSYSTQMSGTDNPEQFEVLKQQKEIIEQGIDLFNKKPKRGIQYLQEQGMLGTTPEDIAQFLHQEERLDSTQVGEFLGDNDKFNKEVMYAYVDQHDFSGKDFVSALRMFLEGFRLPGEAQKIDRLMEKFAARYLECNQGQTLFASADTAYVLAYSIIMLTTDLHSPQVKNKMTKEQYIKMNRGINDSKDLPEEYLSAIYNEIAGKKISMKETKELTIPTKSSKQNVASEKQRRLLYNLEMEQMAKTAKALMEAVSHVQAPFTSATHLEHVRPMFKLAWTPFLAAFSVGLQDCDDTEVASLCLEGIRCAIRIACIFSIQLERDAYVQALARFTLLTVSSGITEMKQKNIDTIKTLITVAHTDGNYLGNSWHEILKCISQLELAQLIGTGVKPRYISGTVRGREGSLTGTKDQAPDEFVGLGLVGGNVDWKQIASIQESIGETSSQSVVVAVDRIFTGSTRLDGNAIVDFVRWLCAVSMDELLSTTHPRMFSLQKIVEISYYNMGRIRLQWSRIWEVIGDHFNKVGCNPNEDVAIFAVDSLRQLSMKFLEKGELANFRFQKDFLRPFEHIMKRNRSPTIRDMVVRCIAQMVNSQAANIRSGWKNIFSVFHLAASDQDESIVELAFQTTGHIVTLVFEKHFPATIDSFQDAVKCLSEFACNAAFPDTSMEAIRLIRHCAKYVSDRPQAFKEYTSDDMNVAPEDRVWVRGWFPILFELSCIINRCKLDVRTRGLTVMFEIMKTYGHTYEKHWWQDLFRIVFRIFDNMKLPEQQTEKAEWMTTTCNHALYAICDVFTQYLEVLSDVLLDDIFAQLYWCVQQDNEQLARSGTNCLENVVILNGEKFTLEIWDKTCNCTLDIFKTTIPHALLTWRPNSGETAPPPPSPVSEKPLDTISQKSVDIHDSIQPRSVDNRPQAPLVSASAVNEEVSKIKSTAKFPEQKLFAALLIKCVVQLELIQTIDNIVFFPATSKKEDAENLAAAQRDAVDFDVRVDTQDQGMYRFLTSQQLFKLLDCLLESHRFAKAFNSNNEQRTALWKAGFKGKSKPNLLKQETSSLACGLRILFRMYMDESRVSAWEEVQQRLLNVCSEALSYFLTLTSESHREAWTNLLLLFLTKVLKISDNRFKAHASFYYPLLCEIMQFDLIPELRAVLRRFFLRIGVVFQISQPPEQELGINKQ
Method in brief: as §1

Measured: binding result

B1: LZTR1 R810W-FLAG (other, human, UniProt Q8N653 1-840, looked up)
chain: MAGPGSTGGQIGAAALAGGARSKVAPSVDFDHSCSDSVEYLTLNFGPFETVHRWRRLPPCDEFVGARRSKHTVVAYKDAIYVFGGDNGKTMLNDLLRFDVKDCSWCRAFTTGTPPAPRYHHSAVVYGSSMFVFGGYTGDIYSNSNLKNKNDLFEYKFATGQWTEWKIEGRLPVARSAHGATVYSDKLWIFAGYDGNARLNDMWTIGLQDRELTCWEEVAQSGEIPPSCCNFPVAVCRDKMFVFSGQSGAKITNNLFQFEFKDKTWTRIPTEHLLRGSPPPPQRRYGHTMVAFDRHLYVFGGAADNTLPNELHCYDVDFQTWEVVQPSSDSEVGGAEVPERACASEEVPTLTYEERVGFKKSRDVFGLDFGTTSAKQPTQPASELPSGRLFHAAAVISDAMYIFGGTVDNNIRSGEMYRFQFSCYPKCTLHEDYGRLWESRQFCDVEFVLGEKEECVQGHVAIVTARSRWLRRKITQARERLAQKLEQEAAPVPREAPGVAAGGARPPLLHVAIREAEARPFEVLMQFLYTDKIKYPRKGHVEDVLLIMDVYKLALSFQLCRLEQLCRQYIEASVDLQNVLVVCESAARLQLSQLKEHCLNFVVKESHFNQVIMMKEFERLSSPLIVEIVRRKQQPPPRTPLDQPVDIGTSLIQDMKAYLEGAGAEFCDITLLLDGHPRPAHKAILAARSSYFEAMFRSFMPEDGQVNISIGEMVPSRQAFESMLRYIYYGEVNMPPEDSLYLFAAPYYYGFYNNRLQAYCKQNLEMNVTVQNVLQILEAADKTQALDMKRHCLHIIVHQFTKVSKLPTLWSLSQQLLLDIIDSLASHISDKQCAELGADI
notes: Stably expressed in U87 cells by lentivirus; also called LZTR1-FLAG-R810W; LZTR1 RW; not shown: FLAG tag
binds: PPFIBP1 | MTR | MTOR | ARFGEF1
